Experimental data reported in article PMC8708666 (2021).

These binders were tested against Integrin alpha1beta1 (Homo sapiens, UniProt P56199) (assay: MST).
Chain of Integrin alpha1beta1 (P56199 29-1141, chain 1 of 2): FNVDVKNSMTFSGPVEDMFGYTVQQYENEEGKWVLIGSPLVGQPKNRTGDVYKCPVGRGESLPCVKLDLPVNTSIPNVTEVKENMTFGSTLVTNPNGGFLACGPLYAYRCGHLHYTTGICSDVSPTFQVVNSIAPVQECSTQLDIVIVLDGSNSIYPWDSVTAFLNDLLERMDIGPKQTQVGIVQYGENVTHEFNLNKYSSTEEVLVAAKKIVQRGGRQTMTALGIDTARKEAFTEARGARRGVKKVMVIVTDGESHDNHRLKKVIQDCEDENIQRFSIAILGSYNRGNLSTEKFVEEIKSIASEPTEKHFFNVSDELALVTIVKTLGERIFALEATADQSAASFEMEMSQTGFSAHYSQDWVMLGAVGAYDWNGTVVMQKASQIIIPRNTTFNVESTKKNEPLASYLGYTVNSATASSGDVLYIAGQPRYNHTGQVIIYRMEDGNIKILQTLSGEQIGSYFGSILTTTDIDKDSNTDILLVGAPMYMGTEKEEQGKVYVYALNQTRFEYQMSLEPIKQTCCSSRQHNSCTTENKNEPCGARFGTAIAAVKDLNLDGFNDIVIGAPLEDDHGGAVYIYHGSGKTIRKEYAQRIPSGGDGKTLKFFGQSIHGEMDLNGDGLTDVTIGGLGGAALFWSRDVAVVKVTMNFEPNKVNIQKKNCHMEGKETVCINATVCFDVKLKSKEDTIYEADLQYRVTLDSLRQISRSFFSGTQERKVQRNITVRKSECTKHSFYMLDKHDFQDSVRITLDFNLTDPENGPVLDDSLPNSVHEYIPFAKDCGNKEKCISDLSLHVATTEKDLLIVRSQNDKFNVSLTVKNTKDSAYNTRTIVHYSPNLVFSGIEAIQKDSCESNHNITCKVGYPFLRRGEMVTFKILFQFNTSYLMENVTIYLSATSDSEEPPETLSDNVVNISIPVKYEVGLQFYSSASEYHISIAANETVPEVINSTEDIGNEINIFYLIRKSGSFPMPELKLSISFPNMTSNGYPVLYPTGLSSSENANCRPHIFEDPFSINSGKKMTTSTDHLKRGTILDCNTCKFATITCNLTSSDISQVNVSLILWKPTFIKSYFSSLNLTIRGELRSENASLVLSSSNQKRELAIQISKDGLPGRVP
Chain of Integrin alpha1beta1 (chain, as listed by the source, chain 2 of 2): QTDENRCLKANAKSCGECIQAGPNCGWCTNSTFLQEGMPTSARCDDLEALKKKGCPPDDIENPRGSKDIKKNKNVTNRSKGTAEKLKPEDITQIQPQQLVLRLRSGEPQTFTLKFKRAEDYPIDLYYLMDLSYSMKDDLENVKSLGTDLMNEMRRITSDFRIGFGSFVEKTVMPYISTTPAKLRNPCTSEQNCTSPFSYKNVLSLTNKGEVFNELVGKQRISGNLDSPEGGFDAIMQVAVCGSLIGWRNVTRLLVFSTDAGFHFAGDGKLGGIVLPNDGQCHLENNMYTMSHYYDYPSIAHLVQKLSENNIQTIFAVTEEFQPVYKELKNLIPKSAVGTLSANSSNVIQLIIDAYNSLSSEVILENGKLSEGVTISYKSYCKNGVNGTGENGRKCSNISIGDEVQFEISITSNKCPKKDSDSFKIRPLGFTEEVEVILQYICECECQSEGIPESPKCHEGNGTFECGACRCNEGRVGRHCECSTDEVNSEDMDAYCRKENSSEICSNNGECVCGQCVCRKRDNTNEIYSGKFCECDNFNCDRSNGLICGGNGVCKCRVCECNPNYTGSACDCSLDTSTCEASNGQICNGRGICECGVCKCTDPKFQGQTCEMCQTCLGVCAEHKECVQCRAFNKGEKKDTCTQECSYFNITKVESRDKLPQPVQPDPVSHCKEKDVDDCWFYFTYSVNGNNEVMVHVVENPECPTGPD

First: NKESGFPGLR [Collagen alpha-6(IV) chain peptide 8]
Second: KGARGDRGSG [Collagen alpha-6(IV) chain peptide 10]
The Kd of the first is 31-fold higher: 1470 µM for the first, 47.3 µM for the second. The second binds more tightly here.

First: GFQGEKGVKG [Collagen alpha-6(IV) chain peptide 5]
Second: FKGTKGRDGL [Collagen alpha-6(IV) chain peptide 25]
The Kd of the first is 2.3-fold higher: 790 µM for the first, 351 µM for the second. The second binds more tightly here.

Compared with LAPGSFKGMK [Collagen alpha-6(IV) chain peptide 4], DPGFPGMKGK [Collagen alpha-6(IV) chain peptide 30] is 3-fold lower in Kd: 59.2 µM for the first, 19.7 µM for the second. The second binds more tightly here.

For GPPGSIVKKG [Collagen alpha-6(IV) chain peptide 19], the Kd was 2190 µM.
